The term Kd denotes a measure of binding affinity in units of concentration. What is called koff is the first-order rate constant of dissociation. Broadly, the kon is the rate constant with which the complex forms.

Consider 19 molecules from US7329737 (DYAX, dated 2008).

The chains are these.
B1: M0105-F02 (Fab, V domains shown)
VH: EVQLLESGGGLVQPGGSLRLSCAASGFTFSRYWMAWVRQAPGKGLEWVSSIGPSGGSTKYADSVKGRFTISRDNSKNTLYLQMNSLRAEDTAVYYCARTARWLSFDYWGQGTLVTVSS
VL: DIQMTQSPSTLSASVGDRVTITCRASQSISSWLAWYQQKPGEAPKLLIYAASSLRNGVPSRFIGSGSGTDFTLTISSLQPEDFATYYCQQSYSTPPTFGGGTKVEIKR
B2: M0129-B09 (Fab, V domains shown)
VH: EVQLLESGGGLVQPGGSLRLSCAASGFTFSRYWMHWVRQAPGKGLEWVSSIGPSGGVTKYADSVKGRFTISRDNSKNTLYLQMNSLRAEDTAVYYCARHGSWGGMDVWGQGTTVTVSS
VL: DIQMTQSPSFLSASVGDRVTITCRASQGISSYLAWYQQKPGKAPKLLIYAASTLQSGVPSRFSGSGSGTEFTLTISSLQPEDFATYYCQQLNSYPRTFGQGTKVEIKR
B3: M0119-B09 (Fab, V domains shown)
VH: EVQLLESGGGLVQPGGSLRLSCAASGFTFSWYWMYWVRQAPGKGLEWVSVIGSSGGVTKYADSVKGRFTISRDNSKNTLYLQMNSLRAEDTATYYCARGPYRGYFDYWGQGTLVTVSS
VL: DIQMTQSPATLSVSPGEGATLSCRASQSVGNSLAWYQQKPGQAPRVLVYGASTRASGIPARFSGSGSVTEFTLTISSLQSEDFAVYYCQEYNKWPITFGQGTRLERKR
B4: M0103-F07 (Fab, V domains shown)
VH: EVQLLESGGGLVQPGGSLRLSCAASGFTFSLYAMHWVRQAPGKGLEWVSSIRPSGGLTKYADSVKGRFTISRDNSKNTLYLQMNSLRAEDTAVYYCARVGVWYGMDVWGQGTTVTVSS
VL: AQSALTQPASVSGSPGQSITISCTGTSNDIGRTNYVSWYRQDPGRAPKLILFEVSNRPSGISNRFSASKSGSTASLTISGLQADDESDYYCSSCTTAPVCVFGNGTRVTVLG
B5: M0097-E07 (Fab, V domains shown)
VH: EVQLLESGGGLVQPGGSLRLSCAASGFTFSWYQMMWVRKAPGKGLEWVSYIRSSGGKTDYADSVKGRFTISRDNSKNTLYLQMNSLRAEDTAVYYCARVGVWYGMDVWGQGTTVTVSS
VL: DIQMTQSPSSLSASVGDRVTITCRASQSISSYLSWFQQRPGKAPKLLIYSASNLQSGVPLRFSGSGSGTDFTLTISSLQPEDFATYYCQQIYRTPLTFGGGTKVEIKR
B6: M0127-D05 (Fab, V domains shown)
VH: EVQLLESGGGLVQPGGSLRLSCAASGFTFSHYYMMWVRQAPGKGLEWVSSIGPSGGMTDYADSVKGRFTISRDNSKNTLYLQMNSLRAEDTAVYYCATGGTASLDYWGQGTLVTVSS
VL: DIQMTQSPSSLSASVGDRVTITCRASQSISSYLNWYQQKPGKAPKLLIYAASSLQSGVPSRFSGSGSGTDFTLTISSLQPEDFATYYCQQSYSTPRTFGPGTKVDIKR
B7: M0126-C10 (Fab, V domains shown)
VH: EVQLLESGGGLVQPGGSLRLSCAASGFTFSHYKMHWVRQAPGKGLEWVSSIWPSGGGTFYADSVKGRFTISRDNSKNTLYLQMNSLRAEDTAMYYCARTSGGFGAFDIWGQGTMVTVSS
VL: DIQMTQSPSSLSASVGDRVTITCRAGQTINNYLNWYQQKPGKAPNLLIYAASNLQSGVPSRFSGSKSGTDFTLTISSLQPEDFATYHCQQTYRTPFTFGGGTRVEIKG
B8: M0122-H04 (Fab, V domains shown)
VH: EVQLLESGGGLVQPGGSLRLSCAASGFTFSRYAMAWVRQAPGKGLEWVSSIGSSGGVTKYADSVKGRFTISRDNSKNTLYLQMNSLRAEDTAVYYCAAPRGRYYYDSSGYYYGGVFDYWGQGTLVTVSS
VL: AQYELTQPRSVSGSPGQSVTISCTGTSSDVGGFNYVSWYQQHPGKAPKLMIYDVSKRPSGVPDRFSGSKSGTTASLTISGLQADDEADYYCCSYTGNYTYVFGTGTKVTVLG
B9: M0139-A04 (Fab, V domains shown)
VH: EVQLLESGGGLVQPGGSLRLSCAASGFTFSHYPMTWVRQAPGKGLEWVSSIRPSGGNTGYADSVKGRFTISRDNSKNTLYLQMNSLRAEDTAVYYCARLTGYSSGWFWAYGMDVWGQGTTVTVSS
VL: DIQMTQSPGTLSLSPGDRATLSCRASQSVSSSYLAWYQQKAGQAPRLLIYGAASRATGIPDRFSGSGSGTDFTLTISRLEREDFAVYYCQQYGSSPLITFGQGTRLEIKR
B10: M0102-A04 (Fab, V domains shown)
VH: EVQLLESGGGLVQPGGSLRLSCAASGFTFSHYVMNWVRQAPGKGLEWVSRIYPSGGVTVYADSVKGRFTISRDNSKNTLYLQMNSLRAEDTAVYYCARGYGMDVWGQGTMVTVSS
VL: AQSELTQPPSASGTPGQRVTISCSGSSSNIGSNYVYWYQQYPGTVPKLLIHSNNQRPSGVPDRFSGPKSGTSASLAISGLRSEDEADYYCATWDNSLSAWVFGGGTKLTVLR
B11: M0111-B02 (Fab, V domains shown)
VH: EVQLLESGGGLVQPGGSLRLSCAASGFTFSKYWMAWVRQAPGKGLEWVSVIYPSGGQTKYADSVKGRFTISRDNSKNTLYLQMNSLRAEDTAVYYCTLMRYGDRFDYWGQGTLVTVSS
VL: AQYELTQDPAVSVALGQTVRITCQGDSLRSYYASWYQQKPGQAPVLVIYSKSNRPSGIPDRFSGSSSGSTASLTITGAQAEDEADYYCNSRDSSGNHLVFGGGTKLTVL
B12: M0099-C12 (Fab, V domains shown)
VH: EVQLLESGGGLVQPGGSLRLSCAASGFTFSRYAMHWVRQAPGKGLEWVSSIWPSGGATFYADSVKGRFTISRDNSKNTLYLQMNSLRAEDTAVYYCATSPTLNAFHIWGQGTMVTVSS
VL: AQSVLTQPASVSGSPGQSITISCTGTTSDVGGYKYVSWYQHHPGKVPKLIIYEVNHRPSGVSHRFSGSKSGNTASLIISALQAEDEADYYCYSYTSDSTPYVFGTGTKVTVL
B13: M0099-E11 (Fab, V domains shown)
VH: EVQLLESGGGLVQPGGSLRLSCAASGFTFSHYTMVWVRQAPGKGLEWVSSIYSSGGRTNYADSVKGRFTISRDNSKNTLYLQMNSLRAEDTAVYYCARIVVVPSAQFYFYYGMDVWGQGTTVTVSS
VL: DIQMTQSPSTLSASVGDRVTITCRASQSISNWLAWYQQKPGRAPKLLIYKASTLESGVPSRFSGSGSGTEFTLTISSLQPDDFATYYCQHYNSYSLFGQGTKLEIKR
B14: M0125-C04 (Fab, V domains shown)
VH: EVQLLESGGGLVQPGGSLRLSCAASGFTFSHYVMDWVRQAPGKGLEWVSSIYPSGGWTRYADSVKGRFTISRDNSRNTLYLQMNSLRAEDTAVYYCARRGQWLVLDYWGQGTLVTVSS
VL: AQSELTQPASVSGSPGQSITISCAGTSSDLGGYDYVSWYQQYPGKAPKLIIYQVGRRPSGVSNRFSGSKSGNTASLTISGLQTEDEADYYCSSYTSSRTRVFGGGTRVTVLG
B15: M0112-C02 (Fab, V domains shown)
VH: EVQLLESGGGLVQPGGSLRLSCAASGFTFSNYYMLWVRQAPGKGLEWVSYIRSSGGSTRYADSVKGRFTISRDNSKNTLYLQMNSLRAEDTAVYYCAKPTVDGAFDYWGQGTLVTVSS
VL: DIQMTQSPGTLSLSPGDRATLSCRASQSVSSNYLAWYQQKPGQAPRLLIYGASSRATGIPDRFSGSGSGTDFTLTISRLEPEDFGVYYCQQFGSSLFTFGPGTKVNIKR
B16: M0117-A12 (Fab, V domains shown)
VH: EVQLLESGGGLVQPGGSLRLSCAASGFTFSNYKMSWVRQAPGKGLEWVSGIYPSGGLTQYADSVKGRFTISRDNSKNTLYLQMNSLRAEDTAVYYCAKVGVWYGMDVWGQGTTVTVSS
VL: DIQMTQSPGTLSLSPGDRATLSCRASQSVGSDYLAWYQQKPGQAPRLLIYGASSRATGIPDRFSGSGSGTDFTLTISRLEPEDFAVYYCQQYGSSLYTFGQGTKLEIKR
B17: M0092-B12 (Fab, V domains shown)
VH: EVQLLESGGGLVQPGGSLRLSCAASGFTFSQYLMAWVRQAPGKGLEWVSSIYPSGGNTNYADSVKGRFTISRDNSKNTLYLQMNSLRAEDTAVYYCARDRSIVPYSSSWYMPRDYYYGMDVWGQGTTVTVSS
VL: DIQMTQSPSSLSASVGDRVTITCRASQGISNYLAWYQQKPGKVPKLLIYAASTLQSGVPSRFSGSGSGTDFTLTISSLQPEDFATYYCQQSYSTPYTFGQGTKLEVRR
B18: M0138-B06 (Fab, V domains shown)
VH: EVQLLESGGGLVQPGGSLRLSCAASGFTFSPYTMSWVRQAPGKGLEWVSGIYPSGGETWYADSVKGRFTISRDNSKNTLYLQMNSLRAEDTAVYYCAKNINLRYDILTGYFDFWGQGTMVTVSS
VL: DIQMTQSPSSVSASVGDRVTITCRASQGISSWLAWYQQKPGKAPKLLIYAASSLQSGVPSRFSGSGSGTDFTLTISSLQPEDFATYYCQQANSFPLTFGGGTKVEIKR
B19: M0108-C10 (Fab, V domains shown)
VH: EVQLLESGGGLVQPGGSLRLSCAASGFTFSRYVMAWVRQAPGKGLEWVSVIRPSGGKTLYADSVKGRFTISRDNSKNTLYLQMNSLRAEDTAVYYCARVAGRVGVPATKKNWFDPWGQGTLVTVSS
VL: AQSVLTQPASVSGSPGQSITISCTGTSSDVGGYNYVSWYQQHPGQPPKLIIYEVSNRASGVSNRFSGSKFGNTASLTISGLQSEDEADYHCSSYTSSTTLLFGGGTRLTVLG

This experiment concerns the target T1, hK1 (human tissue kallikrein 1), recombinant (human, UniProt P06870 25-262).
T1 construct: Expressed in P. pastoris from KLK1 cDNA and purified; enzymatically active; also called KLK1; Recombinant (Pichia) Kallikrein
Briefly: SPR. A general note: In SPR one partner is held on a chip, and binding of the other changes the refractive index at the surface.
As to B1, the Kd came out at 0.0109 µM, the koff was found to be 0.0103 s⁻¹ and the kon came out at 947000 M⁻¹ s⁻¹.

B2: the Kd worked out at 0.0127 µM, the koff turned out to be 0.022 s⁻¹ and the on-rate (kon) amounted to 1.73e+06 M⁻¹ s⁻¹.

For the molecule B3, the Kd was found to be 0.0137 µM, the koff was 0.00483 s⁻¹ and the kon was 352000 M⁻¹ s⁻¹.

Turning to B4, the Kd worked out at 0.0132 µM, the koff amounted to 0.00743 s⁻¹ and the kon stood at 564000 M⁻¹ s⁻¹.

In the case of B5, the Kd stood at 0.0139 µM, the koff amounted to 0.00815 s⁻¹ and the kon turned out to be 585000 M⁻¹ s⁻¹.

For the molecule B6, the Kd amounted to 0.0144 µM, the koff worked out at 0.000921 s⁻¹ and the kon worked out at 63900 M⁻¹ s⁻¹.

Take B7: the dissociation constant Kd came out at 0.0144 µM, the koff was 0.00648 s⁻¹ and the kon stood at 451000 M⁻¹ s⁻¹.

With B8, the dissociation constant (Kd) turned out to be 0.0118 µM, the koff is 0.000802 s⁻¹ and the kon worked out at 68200 M⁻¹ s⁻¹.

Consider B9, for which the Kd is 0.0122 µM, the koff was 0.00503 s⁻¹ and the kon was found to be 411000 M⁻¹ s⁻¹.

With B10, the dissociation constant (Kd) was determined as 0.0133 µM, the koff amounted to 0.00435 s⁻¹ and the kon is 327000 M⁻¹ s⁻¹.

On to B11, for which the Kd came to 0.0127 µM and the dissociation rate constant (koff) came out at 1170 s⁻¹.

As to B12, the Kd stood at 0.013 µM, the off-rate constant (koff) came out at 0.00461 s⁻¹ and the on-rate constant (kon) is 354000 M⁻¹ s⁻¹.

With B13, the Kd is 0.0132 µM, the koff amounted to 0.00796 s⁻¹ and the kon is 605000 M⁻¹ s⁻¹.

B14: the Kd was found to be 0.0112 µM, the off-rate constant (koff) was determined as 0.00536 s⁻¹ and the kon worked out at 478000 M⁻¹ s⁻¹.

With B15, the dissociation constant Kd was found to be 0.0109 µM, the koff was 0.00523 s⁻¹ and the on-rate constant (kon) amounted to 481000 M⁻¹ s⁻¹.

As to B16, the Kd amounted to 0.0142 µM, the koff stood at 0.00345 s⁻¹ and the kon came to 243000 M⁻¹ s⁻¹.

In the case of B17, the Kd was 0.0121 µM, the koff is 0.00171 s⁻¹ and the kon is 141000 M⁻¹ s⁻¹.

Take B18: the Kd is 0.0125 µM, the koff turned out to be 0.000829 s⁻¹ and the kon came to 66400 M⁻¹ s⁻¹.

As to B19, the Kd was 0.0122 µM, the koff turned out to be 0.00431 s⁻¹ and the kon is 353000 M⁻¹ s⁻¹.
